Test: yeast display, Sf9 membrane polyspecificity reagent, FACS + sequencing; frameworks hold sequencing errors
Procedure, shortened: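 Using colony PCR, genes from sorted yeast display clones were amplified, then sequenced on MiSeq at 2 × 250 and filtered by CDR length. The clones had been stained with 10% biotinylated, detergent-solubilized Sf9 membrane reagent for 1 hour at 4 °C and sorted by FACS into low and high (top ~1%) gates on anti-HA and streptavidin fluorescence. Polyreactivity labels come from the gate of origin.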

| Sequence | polyreactivity (PSR sort gate) |
| --- | --- |
| QVQLVESGGGLVQAGGSLRLSSAASGFIFQKYVMGWSRQAPGKETEMVAVISRSGDSTRYADSVQGRFTISRDNAKNTVYLQMNSLKPEDTAVYYCAAASAKLTGTGYYYWGQGTQVTVSS | high polyreactivity |
| QVQLVESGGGLVQAGGSLRLSCAASGSIFSKYAMGWYRQAPGKEWEVVAAIRSIGGSTYYADSVMGRFTISRDNAKNTVYLQMNSRNPDDTAVYYCAARFWPAYSGWYENWGQGTQVTVSS | low polyreactivity |
| QVQLVESGGCLVQAGGSLRLSCAASGRTFAWYAMGWYRQAPGKERELVAAITNGGSTYYADSVKGRFTISRDNAKNTVYLQMNSLKPDDTAVYYCAAYYRSRHHGYDSWGQGTQVTVSS | low polyreactivity |
| QVQLVESGGGLVQAGGSLRLSCAASGFISYFYTMGWYRPAPGKERELVAAISNTGDRTYYADSVKGRFTISRDNAKNTVYLQMNSLKPEDTAVYYCNAVVRGTYWQSFDYWGQGTQVTVSS | high polyreactivity |
| QVQLVESGGGLVQAGGSLRLSCAATGRTFSIYAMGWYRQAPGKERELVARIRGGGSTNYADSVKGRFTISRDNAKNTVYLQMNSLKPEDTAVYYCATVYWRYGAHSYRYYYWGQGTQVTVSS | high polyreactivity |
| QVQLVESGGGLVQAGGSLRLSCAASGSTFKIYAMGWYRQAPGKERELVARITSGGSTNYADSVKGRFTISRDNAKNTVYLQMNSLKPEDTAVYYCAVPWYTRESGAYDYWGQGTQVTVSS | high polyreactivity |
| QVQLVESGGGLDQAGGSLRLSCAASGRTFTRYALCWYRQAPGNVRELVATMTRGARTYYADSVKGRFTISRDNAKNTVYLQMNSLKPVDTAVYYCNAVYSFLSPDQMGYWGQGTQVTVSS | high polyreactivity |
| QLQLVESGGGLVQAGGSLRLSCAASGSTFPTNAMGWYRQAPGKEMELVATITTGGSTYYADSVKGRFTISRDNAKNTVYLQMNCLKPEDTAVYYCNAEYVYLIFSVYLYDYDYWGQGTQVTVSS | low polyreactivity |
| QVQLVESGGGLVQAGGSLRLSCAASGNIFQKYAMGWYRQAPGKERELVAAIRRGDRTYADSVKGRFTISRDNAKNTVYLQMNSLKPEDTAVYYCNTAGASYFTAGYGYWGQGTQVTVSS | low polyreactivity |
| QVQLVDSGGGLVQAGGSLRLSCAASGSTFAPYAMGWSRQAPGKERELVAAISWGGGSTYYADSVKGRFTISRDNAKNTVYLQMNSLKPEDTAVYYCAADYAEYSAEWYEDWGQGTQVTVSS | high polyreactivity |
| QVQLVESGGGLVQAGGSLRLSCAASGRILYHYAMGWYRQAPGKERELVAAITFSGDTTYYADSVKGRFTISRDNAKNTVYLQMNSLKPEDTAVYYCNTDYYWNYVSRLYDYWGQGTQVTVSS | high polyreactivity |
| QVQLVESGGGLVQAGGSLRLSCAASGRILKRNSMGWYRQAPGKERELVAAITSSGGSTYADSVKGRFTISRDNEKNTVYLQMNSLKPEDTAVYYCNAGYKRPWSHKYYWGQGTQVTVSS | low polyreactivity |
| QVQLVESGRGLVQAGGSLRLSCAASGIIFKRYAMGWYRQAPGKERELVATINRDGRTSYADSVKGRFTSSRDNAKNTVYLQMHSLKPEDTAVYYCAATYLLERPTSKHPRYDYWGQGTQVTLSS | low polyreactivity |
| QVQLVESGGGLVQAGGILRLSCAASGSTFYIYAMGWYRQAPGKERELVAAISTTDGTTYYADSVKGRFTISRDNAKNTVYLQMNSLKPEDTAVYYWAAEWFGSVQPAYDYWGQGTQVTVSS | high polyreactivity |
| QVQLVESGGGIVQAGGSLRLSCAASGSIFDNAMGWYRQAPGKERELVAAITSGGITNYADSVKGRFTISRDNAKNTVYLQMNSLKPEDTAVYYCNTLSPTQTKYDYWGQGTKVTVSS | low polyreactivity |
| QVQLVESGGGLVQAGGSLRLSCAASGSTFYGYAMGWYRQAPGKERELVASITTRGGRTNYADSVKGRFTISRDNAKNTVYLQMNSLKPEDTAVYYCATYSYVTRYARWGEYDYWGQGTQVTVSS | high polyreactivity |
| QVQLVESGGGLVQAGGSLRLSCAASGSIFIIYAMGWYRQAPGKERELVAAINTSGTSTYYADSVKGRFTISRDNAKNTVYLQMNSLKPEDTAVYYCAAAGRRSYKYYFWGQGTQVTVSS | high polyreactivity |
| QVQIVESGGGLVQAGGSLRLSCAASGSIFDSNAMGWYRQAPGKERELVASITSDGDTYYADSVKGRFTISRDNAKNTVYLQMNSVKPEDTAVYYGAAYVPYSGLDYWGQGTQVTVSS | low polyreactivity |
| QVQLVESGGGLVQAGVSLRLSCAASGRIFGENAMGWYRQAPGEEREFVAVISISDASTYYADSVKGRFTISRDNAKNTVYFQMNSLKPEDTAVYYCAADLTDFLYVASDYCGQGTQVTVSS | low polyreactivity |
| QVQLVESGGGLVQAGGSLRLSCAASGSIFTSYTMGWYSQAPGKERELVAAIDSGGDSTYYADSVKGRFTISRDNAKNTVYLQMNSLKPEDTAVYYCAAEPQYWWQDYRYNYWGQGTQVTVSS | high polyreactivity |
| QVQLVESGGGLVQAGGSLRLSCAASVSIFSSYAMGWYRQAPGKERELVAAISRSGGRTYYADSVKGRFTISRDNAKNTVFLQMNSLKPEDTAVYYCNAYAQVSYGTYDYWGQGTQVTVSS | high polyreactivity |

| Sequence | polyreactivity (PSR sort gate) |
| --- | --- |
| QVQLVESGGGLVQAGGSLRLSCAASGRIFQIYAMGWYRQAPGKERELVAAIRSGSNTNYADSVKGRFTISRDNAMNTVYLQMNSLKPEDTAVYYCNALYTSLRKYNYWGQGTQVTVSS | low polyreactivity |
| QVQLVESGGGLVQAGGSLRLSCAASGSTFRPYAMGWYRQAPGKERELVARITGSGDSTYYADSVKGRFTISRDNAKNTVYLQMNSLKPEDTAVYYCAREFDYSLSGFDYWGQGTQVTVSS | low polyreactivity |
| QVQLVESGGGLVQAGGSLRLSCASSGRTFLINAMGWYRQAPWKERELVATISRSGGSTYYADSVKGRFTISRDNAKITVYLQMNSLKPEDTAVYYCAALVRIGYYYWGQGTQVTVSS | high polyreactivity |
| QVQLVESGGGLVQAGGSLRLSCAASGLTFWFNAMGWYRQAHGKEREFVAAISLSSTYYADSVKGRFTISRDNAKNTVYLQMNSLKPEDTAVYYCAAELSVSLYDFDYWGQGTQETVSS | high polyreactivity |
| QVQLVESGGGLVQAGGSLRLSCAASGRTFAYNTMGWYRQAPGKESELVAAITWSGGGTYYADSVKGRFTISRDNAKNTVYLQMNSLKPEDTAVYYCAVEYASPRARYRYYYWGQGTQVTVSS | high polyreactivity |
| QVQLVESGGGLVQAGGSLRLSCAASGSIFVYNAKGWYRQAPGKERELVAAISSSGSSTYYADSVKGRFTISRDNAKNTFYLQMNSLKPEDTAVYYCAADPARYGYWNSYDYWGQGTQVTVSS | high polyreactivity |
| QVQLVESGGGLVQAGGSLRLTCAASVRTCYSYALGWYRQEPGKEMELVASISSGGGTNYADSVKGRFTISRYNAKNTVFLQMNSLKPEDTAVYYFAAYSSWGGFDYWGQGTQLTVSS | low polyreactivity |
| QVQLVESGGGLVQAGGSLRLSCAASGRIFPWYSMGWYRQAPGKERELVAAISSSGGRTYYADSVKGRFTISRDNAKNTVYLQMNSLKPVDTAVYYCAADRRYISQRTYNYWGQGTQVTVSS | high polyreactivity |
| QVHLVESGGGLVQAGGSLRLSCAASGRTFGYYAMGWYRHAPGKERELVAAISRSAATTYYADSVKGRFSISRDNAKNTVYLQMYSLKPDDTAVYYCAAGGRTYAPCDYGYWGQGTQVTVSS | high polyreactivity |
| HAQLQESGGGMVQAGGSLRRSCAASGSIILFSGMGWYRRARGKERELVASIGFGSITYYADRVKGRFTISRDNANNTVYLQMNSLKPEDTAVYYCAVQVQDESWLDYWGQGTQVTVSC | low polyreactivity |
| QVHLVESGGGLVQAGGSLRLSCAASGRIFDDYAMGWYRQAPGKERELVAAISWSGGSTYYADSVKVRFTISRDNAKNTVYLQRNSLKPEDTAVYYCAAPYHYYKRIGYDYWGQGTQVTVSS | low polyreactivity |
| QVQLVESGGGLVQAGGSLRLSCAASGIIFPTYAMGWYRQAPGKERELVAAISVSGGTTSYADSVKGRFTISRDNAKNTVYLQMNSLKPEDTAVYYCAARKYSYPVAAHYYWGQGTQVTVSS | high polyreactivity |
| QVQLVETGGGIVQAGGSLRLSCAAYGRILWYYAMGWYRQAPGKERELVAAITSGGSTYYADSVKGRFTLSRDIAKNTVYLQMNSLKPEDTAVYYCNAYYTYRFNYWGQGTQVTVSS | high polyreactivity |
| QVQLVESGGGLVQAGGSLRLSCAASGSTFSVNAMGWYRQAPGKEREFVAAITYSGGSTYYADSVKGRFTISRDNAKNTVYLQMNSLKPEDTAVYYCNRDTRYYWKRYGYWGQGTQVTVSS | high polyreactivity |
| QVQLVESWGGLVQAGCSLRLRCAASGRIFGPYAMGWYRQARGQERELVAAISRSGGSTYYADSVKGRFTISRDNAKNTVYLQMKSLNPEDTAVYYCNARFVIYSRVDYWGQGTQVTVSS | low polyreactivity |
| QVQLVESGGGLVQAGGSLRLSCAASGSTIAYYTMGWYRQAPGKERELVAAISASGGSTYYADSVKGRFTISRDNAKNTFYIQMNSLKPEDTAVYYCNAESYLTGWWVDYWGQGTQVTVSS | low polyreactivity |
| QVQLVESGGGLVQAGGSLRLSCAASGSTFKRYAMGWYRQAPGKERELVAAITNGDRTNYADSVKGRFTISRDNAKNTVYLQMNSLKPEDTAVYYCAAAYSRYTSRFYYWGQGTQVTVSS | high polyreactivity |
| QVQLEESGGGLVQAGGSLRLSCAASGLIFPVYAMGWYRQAPGKERELVASISWNGGSTYYADSVKGRFTISRDNAKNTVYLQMNSLKPEDTAVYYCNKYPVSLWYYSKDYTYDYWGQGTQVTVSS | low polyreactivity |
| QVQLVESGGGLVQAGGSLRLSCAASGFTFSTYAMGWYRQAPGKERELVAAISFSGGSTYYADSVKGRFTISRDNAMNSVYLQMNRLKPEDTAVYYCARAYTKYFEIYFIYALLYGHWGQGTQVTVSS | low polyreactivity |
| QVQLVESGGGLVQAGGSLRLSCAASGITFYRNAMGWYRQAPGKERELVAAISRRGGITRYADSVKGRFTISRDNAKNTVYLQMNSLKPEDTAVYYCAVAVNGVSRIKYYYWGQGTQVTVSS | high polyreactivity |
